Reference: paper doi:10.1101/2023.04.24.538129 (bioRxiv, 2023)
Changes are numbered by the printed parent chain. Numbers in names are those of the source.

B1: human dysferlin C2A domain with the pathogenic mutation W52R (C2A^W52R) (domain or fragment)
chain: MLRVFILYAENVHTPDTDISDAYCSAVFAGVKKRTKVIKNSVNPVWNEGFERDLKGIPLDQGSELHVVVKDHETMGRNRFLGEAKVPLREVLATPSLSASFNAPLLDTKKQPTGASLVLQVSYT
B2: human dysferlin C2A domain with the pathogenic mutation V67D (C2A^V67D) (domain or fragment)
chain: B1 chain with R52W, V67D

Biological target: the molecule itself
Experiment: Thioflavin-T fluorescence

Protein | binding result
B1 | binds
B2 | binds
